According to patent publication US20040081659A1, “Conjugates useful in the treatment of prostate cancer” (Merck & Co., Inc., priority 1997, published 2004):
pEC50: −log10 of the molar value. Several values for one entry are separate records, joined by “and”; a condition that tells them apart may be missing. Identical values can stand only once. Like-named read-outs stand apart in the source and are kept apart here.

Columns and labels:
[1] = biological target: T1, enzymatically active free PSA (York PSA) (Homo sapiens, UniProt P07288); test: Recognition/cleavage of oligopeptide-vinca drug conjugates by free PSA (HPLC); type: biochemical; details: for Time to 50% Substrate Cleavage by York PSA: conjugate to PSA molar ratio 100 to 1, pH7.4 buffer
T1 construct: 50% cleavage of the noted. oligopeptide-cytotoxic agent conjugates with enzymatically active free PSA were then calculated; purchased York
T1 sequence (P07288 25-261): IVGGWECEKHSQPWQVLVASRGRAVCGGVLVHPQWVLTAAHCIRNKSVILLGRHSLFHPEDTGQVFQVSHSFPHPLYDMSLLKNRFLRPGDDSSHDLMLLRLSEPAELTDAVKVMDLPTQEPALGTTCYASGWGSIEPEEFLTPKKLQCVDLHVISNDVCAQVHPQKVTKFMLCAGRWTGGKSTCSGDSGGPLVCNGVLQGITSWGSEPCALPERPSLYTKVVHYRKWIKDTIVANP
Procedure: The conjugates prepared as described in Example 3 were individually dissolved in PSA digestion buffer (50 mM tris(hydroxymethyl)-aminomethane pH7.4, 140 mM NaCl) and the solution added to PSA at a molar ration of 100 to 1. Alternatively, the PSA digestion buffer utilized is 50 mM tris(hydroxymethyl)-aminomethane pH7.4, 140 mM NaCl. The reaction was quenched after various reaction times by the addition of trifluoroacetic acid (TFA) to a final 1% (volume/volume). Alternatively the reaction is quenched with 10 mM ZnCl2. The quenched reaction was analyzed by HPLC on a reversed-phase C18 column using an aqueous 0.1 % TFA/acetonitrile gradient. The amount of time (in minutes) required for 50% cleavage of the noted. oligopeptide-cytotoxic agent conjugates with enzymatically active free PSA were then calculated.

[2] = system: LNCap prostate tumor cells; test: In vitro cytotoxicity, Alamar Blue assay, LNCaP cells; type: cell-based; details: read-out: LNCaP Cell Kill in 72 HRS EC 50
Procedure: (§1) Specifically, cell cultures of LNCap prostate tumor cells, Colo320DM cells (designated C320) or T47D cells in 96 well plates was diluted with medium containing various concentrations of a given conjugate (final plate well volume of 200 μl). […] The cells were incubated for 3 days at 37° C., 20 μl of Alamar Blue is added to the assay well. The cells were further incubated and the assay plates were read on a EL-310 ELISA reader at the dual wavelengths of 570 and 600 nm. at 4 and 7 hours after addition of Alamar Blue. Relative percentage viability at the various concentration of conjugate tested was then calculated versus control (no conjugate) cultures and an EC50 was determined. Unless otherwise indicated, the acetate salt of the conjugate was tested.

[3] = system: Colo320DM cells; test: In vitro cytotoxicity, Alamar Blue assay, Colo320DM control cells (do not express free PSA); type: cell-based; details: 72 HRS, read-out: Colo320DM cell kill EC 50 (in parentheses)
Procedure: as §1

[4] = biological target: T1, enzymatically active free PSA (York PSA); test: Recognition/cleavage of oligopeptide-vinca drug conjugates by free PSA (HPLC); type: biochemical

Row | Compound | Substrate cleavage by York PSA at 1 HOUR [1] | Time to 50% Substrate Cleavage by York PSA [1] | further results
1 | 4-O-[Ac-SSChgQ-S(dS)-4-trans-L-Hyp]-dAc-VIN | 1 HOUR = 14% | – | –
2 | 4-O-(Ac-SSChgQ-SS-P)-dAc-VIN (XSXQSSP; non-natural residues) | – | 15 min | –
3 | CC[C@]1(O)C[C@H]2CN(CCc3c([nH]c4ccccc34)[C@@](C(=O)OC)(c3cc4c(cc3OC)N(C)[C@H]3[C@@](O)(C(=O)OC)[C@H](OC(=O)CNC)[C@]5(CC)C=CCN6CC[C@]43[C@@H]65)C2)C1 [4-O-sarcosyl-(dAc)-VIN] | – | – | pEC50 ([2]; 72 HRS): 5.89; pEC50 [3]: 5.74
4 | 4-O-[Ac-SChgQS-Aib-P]-dAc-VIN | 1 HOUR = 8% | – | –
5 | (4-O)-Ac-(4-trans-L-Hyp)SSChgQ-SL-(dAc)-VIN (XSSXQSL; non-natural residues) | – | 35 min | –
6 | CCC1(O)CC2CN(CCc3c([nH]c4ccccc34)C(C(=O)OC)(c3cc4c(cc3OC)N(C)C3C(O)(C(=O)OC)C(OC(=O)C5CC(O)CN5)C5(CC)C=CCN6CCC43C65)C2)C1 [(4-O-4-trans-L-Hyp)-dAc-VIN] | – | – | pEC50 ([2]; 72 HRS): 6.22; pEC50 [3]: 5.96
7 | Ac-AbuSSChgQ-(dS)-(4-O-P)-dAc-VIN | 1 HOUR = 0% | – | –
8 | CC[C@]1(O)C[C@@H]2CN(CCc3c([nH]c4ccccc34)[C@@](C(=O)OC)(c3cc4c(cc3OC)N(C)[C@H]3[C@@](O)(C(=O)OC)[C@H](OC(C)=O)[C@]5(CC)C=CCN6CC[C@]43[C@@H]65)C2)C1 [VINBLASTINE, reference compound] | – | – | pEC50 ([2]; Homo sapiens, LNCaP, 72 h): 6.30; pEC50 ([3]; Homo sapiens, COLO 320DM): 6.30
9 | 4-O-[Ac-SChgQSS-Aib-P]-dAc-VIN | – | 15 min and 23 min | –
10 | 4-O-[Ac-SChgQSS-Pip]-dAc-VIN | – | 15 min | –
11 | 4-O-[(2-OH)Ac-SChgQSS-Sar]-dAc-VIN (XXQSSX; N-methyl; non-natural residues) | 1 HOUR = 4% | – | –
12 | 4-O-(Ac-3-Pal-SSChgQ(dS)-P)-dAc-VIN (XSSXQXP; D-residues; non-natural residues) | – | – | Substrate cleavage by York PSA at 3 HOURS ([1]; 3 HOURS): 3 HOURS = 0%
13 | 4-O-[Ac-4-trans-L-HypSSChgQ-(dS)SP]-dAc-VIN | – | – | Time to 50% Substrate Cleavage by York PSA, 10 X ENZ [4]: 6 HOURS (10 X
